Measurements from patent publication US20140072613A1, “Compositions and Methods for Treating Cutaneous Scarring” (priority 2012, published 2014).

Legend:
Test in all cases: biochemical
Assay type in all cases: biochemical
[1] = biological target: T1, 266 human kinases (Homo sapiens, UniProt Q6PHR2); conditions: ULK3(h); 100 μM
T1 sequence (Q6PHR2 1-472): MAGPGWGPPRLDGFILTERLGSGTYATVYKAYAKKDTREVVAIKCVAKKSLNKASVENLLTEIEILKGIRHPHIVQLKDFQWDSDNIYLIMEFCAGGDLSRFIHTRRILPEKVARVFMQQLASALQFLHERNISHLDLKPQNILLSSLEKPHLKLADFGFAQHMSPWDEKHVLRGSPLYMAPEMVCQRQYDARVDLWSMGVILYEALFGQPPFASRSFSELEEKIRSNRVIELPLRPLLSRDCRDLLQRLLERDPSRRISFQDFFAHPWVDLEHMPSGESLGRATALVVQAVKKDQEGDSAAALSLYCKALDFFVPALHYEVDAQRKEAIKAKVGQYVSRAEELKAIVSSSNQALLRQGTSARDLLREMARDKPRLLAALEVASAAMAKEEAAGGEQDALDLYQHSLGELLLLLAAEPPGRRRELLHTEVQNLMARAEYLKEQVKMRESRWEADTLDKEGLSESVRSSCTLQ
How it was run: (§1)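 Radiometric filter-binding format: a positively charged substrate takes up radiolabelled phosphate from ATP unless the kinase is inhibited, then is captured on a negatively charged filter membrane. Counts from scintillation are expressed relative to a 100% activity control.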

[2] = biological target: 266 human kinases (Homo sapiens, UniProt P16234); conditions: PDGFRα(h); 100 μM
266 human kinases (Homo sapiens, UniProt P16234), sequence (P16234 24-1089): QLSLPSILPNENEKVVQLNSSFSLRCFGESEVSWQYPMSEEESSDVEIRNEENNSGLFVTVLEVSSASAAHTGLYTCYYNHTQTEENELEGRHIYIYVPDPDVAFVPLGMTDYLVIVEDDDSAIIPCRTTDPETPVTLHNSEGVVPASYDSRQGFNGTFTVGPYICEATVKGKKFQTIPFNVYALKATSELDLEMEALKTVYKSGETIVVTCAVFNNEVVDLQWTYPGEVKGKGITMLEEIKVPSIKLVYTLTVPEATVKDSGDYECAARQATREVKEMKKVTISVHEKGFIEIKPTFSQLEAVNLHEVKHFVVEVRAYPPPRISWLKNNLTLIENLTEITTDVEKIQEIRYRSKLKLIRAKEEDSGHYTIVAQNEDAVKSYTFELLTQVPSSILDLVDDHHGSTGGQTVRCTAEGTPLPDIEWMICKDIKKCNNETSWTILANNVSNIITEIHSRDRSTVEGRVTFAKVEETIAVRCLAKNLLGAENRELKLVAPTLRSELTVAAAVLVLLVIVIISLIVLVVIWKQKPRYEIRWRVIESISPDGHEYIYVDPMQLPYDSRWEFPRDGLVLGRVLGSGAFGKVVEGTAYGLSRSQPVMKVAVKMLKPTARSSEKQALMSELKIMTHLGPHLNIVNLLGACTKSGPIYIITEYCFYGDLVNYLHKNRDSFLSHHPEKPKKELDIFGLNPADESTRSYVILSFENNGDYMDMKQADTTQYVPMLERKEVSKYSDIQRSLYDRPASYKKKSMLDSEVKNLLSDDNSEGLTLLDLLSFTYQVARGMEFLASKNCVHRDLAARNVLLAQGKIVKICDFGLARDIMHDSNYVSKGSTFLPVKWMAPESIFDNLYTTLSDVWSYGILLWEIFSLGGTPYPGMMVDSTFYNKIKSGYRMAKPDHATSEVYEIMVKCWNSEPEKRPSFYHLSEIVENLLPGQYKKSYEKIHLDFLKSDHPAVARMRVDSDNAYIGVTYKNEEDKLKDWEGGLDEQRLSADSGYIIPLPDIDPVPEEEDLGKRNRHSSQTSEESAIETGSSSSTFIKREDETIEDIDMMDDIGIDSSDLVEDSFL
How it was run: as §1

[3] = biological target: T2, 266 human kinases (Homo sapiens, UniProt P43403); conditions: ZAP-70(h); 100 μM
T2 sequence (P43403 1-619): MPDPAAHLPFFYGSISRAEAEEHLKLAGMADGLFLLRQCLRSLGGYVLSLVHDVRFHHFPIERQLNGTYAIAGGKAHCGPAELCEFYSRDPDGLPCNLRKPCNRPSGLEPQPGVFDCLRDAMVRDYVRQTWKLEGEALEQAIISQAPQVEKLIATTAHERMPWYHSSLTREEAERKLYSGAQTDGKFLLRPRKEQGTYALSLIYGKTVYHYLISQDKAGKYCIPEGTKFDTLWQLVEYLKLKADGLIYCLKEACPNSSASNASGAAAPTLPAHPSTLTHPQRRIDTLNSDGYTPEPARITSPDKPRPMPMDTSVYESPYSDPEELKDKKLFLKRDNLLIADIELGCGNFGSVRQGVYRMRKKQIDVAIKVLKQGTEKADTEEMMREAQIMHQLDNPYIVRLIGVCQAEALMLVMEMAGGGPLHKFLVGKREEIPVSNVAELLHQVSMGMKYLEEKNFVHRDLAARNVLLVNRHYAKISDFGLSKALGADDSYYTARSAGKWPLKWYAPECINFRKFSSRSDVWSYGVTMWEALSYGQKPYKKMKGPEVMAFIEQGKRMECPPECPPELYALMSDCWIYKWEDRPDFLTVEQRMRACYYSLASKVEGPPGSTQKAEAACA
How it was run: as §1

[4] = biological target: 266 human kinases (Homo sapiens, UniProt Q13043); conditions: MST1(h); 100 μM
266 human kinases (Homo sapiens, UniProt Q13043), sequence (Q13043 whole entry): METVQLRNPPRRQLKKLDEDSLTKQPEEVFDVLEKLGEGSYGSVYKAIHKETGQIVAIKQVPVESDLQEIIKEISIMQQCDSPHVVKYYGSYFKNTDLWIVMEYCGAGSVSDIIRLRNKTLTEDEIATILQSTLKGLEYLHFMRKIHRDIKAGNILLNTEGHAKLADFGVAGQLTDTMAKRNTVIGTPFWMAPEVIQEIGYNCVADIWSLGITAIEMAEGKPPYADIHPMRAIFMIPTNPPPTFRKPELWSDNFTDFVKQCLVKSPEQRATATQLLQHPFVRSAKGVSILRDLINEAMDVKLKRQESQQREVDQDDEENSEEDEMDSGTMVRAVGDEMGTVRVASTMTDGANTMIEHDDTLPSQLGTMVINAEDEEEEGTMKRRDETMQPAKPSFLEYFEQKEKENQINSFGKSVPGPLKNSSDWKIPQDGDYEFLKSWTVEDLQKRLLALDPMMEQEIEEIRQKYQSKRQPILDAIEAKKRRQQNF
How it was run: as §1

[5] = biological target: T3, 266 human kinases (Homo sapiens, UniProt Q8N568); conditions: DCAMKL2(h); 100 μM
T3 sequence (Q8N568 1-766): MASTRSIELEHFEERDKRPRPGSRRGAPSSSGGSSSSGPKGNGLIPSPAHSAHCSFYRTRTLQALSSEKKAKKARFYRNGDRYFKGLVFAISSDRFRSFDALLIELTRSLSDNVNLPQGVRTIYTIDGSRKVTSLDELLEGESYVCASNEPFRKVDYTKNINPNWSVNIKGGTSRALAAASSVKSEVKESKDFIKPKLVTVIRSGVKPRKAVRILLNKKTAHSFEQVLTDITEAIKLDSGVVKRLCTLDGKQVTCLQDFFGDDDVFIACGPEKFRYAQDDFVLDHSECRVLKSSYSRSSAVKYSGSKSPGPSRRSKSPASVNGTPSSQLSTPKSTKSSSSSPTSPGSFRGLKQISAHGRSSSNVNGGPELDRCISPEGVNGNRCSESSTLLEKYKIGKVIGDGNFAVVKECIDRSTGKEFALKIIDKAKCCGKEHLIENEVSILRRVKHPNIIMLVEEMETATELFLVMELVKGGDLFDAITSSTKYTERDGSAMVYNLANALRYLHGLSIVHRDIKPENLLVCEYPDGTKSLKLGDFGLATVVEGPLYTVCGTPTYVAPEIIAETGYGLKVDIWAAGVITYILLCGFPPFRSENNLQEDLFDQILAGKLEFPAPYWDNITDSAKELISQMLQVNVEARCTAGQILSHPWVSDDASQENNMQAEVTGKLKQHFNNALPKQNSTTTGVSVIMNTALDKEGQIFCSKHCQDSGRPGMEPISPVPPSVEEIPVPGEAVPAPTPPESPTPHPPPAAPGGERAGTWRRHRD
How it was run: as §1

[6] = biological target: T4, 266 human kinases (Homo sapiens, UniProt P51813); conditions: Bmx(h); 100 μM
T4 sequence (P51813 1-675): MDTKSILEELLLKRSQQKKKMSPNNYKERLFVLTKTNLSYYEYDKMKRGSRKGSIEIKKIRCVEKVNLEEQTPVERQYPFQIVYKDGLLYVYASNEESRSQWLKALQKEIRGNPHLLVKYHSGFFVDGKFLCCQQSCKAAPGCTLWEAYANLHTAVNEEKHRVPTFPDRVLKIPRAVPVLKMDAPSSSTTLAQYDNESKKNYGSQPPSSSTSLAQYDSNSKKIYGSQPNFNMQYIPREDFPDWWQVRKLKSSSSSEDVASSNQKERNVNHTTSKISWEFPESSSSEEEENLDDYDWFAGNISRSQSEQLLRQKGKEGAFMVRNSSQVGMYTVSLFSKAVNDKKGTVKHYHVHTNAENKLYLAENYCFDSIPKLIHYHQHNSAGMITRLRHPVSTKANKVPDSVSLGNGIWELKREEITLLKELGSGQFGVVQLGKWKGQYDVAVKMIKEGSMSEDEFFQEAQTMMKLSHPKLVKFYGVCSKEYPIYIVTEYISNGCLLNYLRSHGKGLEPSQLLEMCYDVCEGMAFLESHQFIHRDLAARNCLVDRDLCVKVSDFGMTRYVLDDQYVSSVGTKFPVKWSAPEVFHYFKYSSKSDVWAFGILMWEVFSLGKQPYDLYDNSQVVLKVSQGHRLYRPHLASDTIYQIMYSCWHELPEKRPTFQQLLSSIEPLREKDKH
How it was run: as §1

[7] = biological target: 266 human kinases (Homo sapiens, UniProt P08631); conditions: 100 μM
266 human kinases (Homo sapiens, UniProt P08631), sequence (P08631 whole entry): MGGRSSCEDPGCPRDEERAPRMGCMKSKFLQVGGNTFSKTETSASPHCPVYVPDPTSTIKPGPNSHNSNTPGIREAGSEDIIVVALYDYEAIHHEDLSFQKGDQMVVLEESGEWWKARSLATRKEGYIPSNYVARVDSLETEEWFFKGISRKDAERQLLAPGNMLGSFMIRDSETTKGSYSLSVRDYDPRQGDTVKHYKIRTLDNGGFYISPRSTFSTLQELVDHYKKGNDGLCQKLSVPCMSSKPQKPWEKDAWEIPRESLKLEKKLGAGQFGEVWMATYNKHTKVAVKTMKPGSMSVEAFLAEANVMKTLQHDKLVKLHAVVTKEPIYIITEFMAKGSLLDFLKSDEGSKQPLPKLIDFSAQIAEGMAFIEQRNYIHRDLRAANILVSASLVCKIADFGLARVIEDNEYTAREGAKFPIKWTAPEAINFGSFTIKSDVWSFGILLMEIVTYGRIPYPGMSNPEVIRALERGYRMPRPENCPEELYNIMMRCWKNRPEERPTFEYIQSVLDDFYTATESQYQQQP
How it was run: as §1

In the case of “YARAAARQARAKALNRQLGVA (mammal) [MMI-0200]”, the “% activity” value [1] is reported as 164%, the “% activity” value [2] is reported as 108% and the “% activity” value [3] is reported as 58%. For the same sequence, the “% activity” value [4] was 72%, the “% activity” value [5] was 131% and the “% activity” value [6] was 76%. For the same sequence, the “% activity” value ([7]; Hck(h) activated) was 100%.

“HRRIKAWLKKIKALARQLGVAA (mammal) [MMI-0500]” was tested, and the “% activity” value [1] was 177%, the “% activity” value [2] was 40% and the “% activity” value [3] was 1%. For the same sequence, the “% activity” value [4] was 3%, the “% activity” value [5] was 56% and the “% activity” value [6] was 45%. For the same sequence, the “% activity” value ([7]; Hck(h) activated) was 67% and the “% activity” value ([7]; Hck(h)) was 78%.
